B1: H2-Kb / E8 (parent)
chain 1: GDSVTQTEGLVTVTEGLPVKLNCTYQTTYLTIAFFWYVQYLNEAPQVLLKSSTDNKRTEHQGFHATLHKSSSSFHLQKSSAQLSDSALYYCALNTNTGKLTFGDGTVLTVKP
chain 2: EAAVTQSPRNKVAVTGGKVTLSCNQTNNHNNMYWYRQDTGHGLRLIHYSYGAGSTEKGDIPDGYKASRPSQENFSLILELATPSQTSVYFCASGDWGAGTGQLYFGEGSKLTVL
chain 3: not shown
chain 4: IQKTPQIQVYSRHPPENGKPNILNCYVTQFHPPHIEIQMLKNGKKIPKVEMSDMSFSKDWSFYILAHTEFTPTETDTYACRVKHDSMAEPKTVYWDRDM
chain 5: SIINFEKL
B2: H2-Kb / F5 (parent)
chain 1: GDSVTQTEGLVTLTEGLPVMLNCTYQSTYSPFLFWYVQHLNEAPKLLLKSFTDNKRPEHQGFHATLHKSSSSFHLQKSSAQLSDSALYYCALSPSNMGYKLTFGTGTSLLVDP
chain 2: EAAVTQSPRNKVAVTGGKVTLSCNQTNNHNNMYWYRQDTGHGLRLIHYSYGAGSTEKGDIPDGYKASRPSQENFSLILELATPSQTSVYFCASGDASEQYFGPGTRLTVL
chain 3: not shown
chain 4: B1 chain 4
chain 5: SIINFEKL

Variants of: B1
Experiment: % of reporter cells activated (NFAT-GFP), raw
Settings: with E8; scale: % of reporter cells activated
Also: test concentration or dose not given here.

Ratio to parent: each site, then its substitutions
chain 5 F5: V 3.19, Y 1.09, N 1.13, W 2.35, M 1.04, S 1.09, T 0.892, P 1.03, R 0.77, Q 0.682
chain 5 I3: R 0.605, N 0.231, A 0.244, W 1.9, H 1.57, K 0.147, T 0.273, Y 3.36, C 0.982, Q 0.475, V 0.61, D 0.0231, P 0.735, S 2.66, L 1.93, G 0.241, F 2.52, M 1.45, E 0.331
chain 5 K7: N 0.18, Y 0.121, G 0.377, L 0.119, V 0.175, F 0.14, H 0.14, W 0.235, M 0.239, I 0.132, R 1.06, S 0.491, C 0.196, T 0.223, E 0.415, Q 0.256, P 0.0848, A 0.522, D 0.288
chain 5 L8: K 0.228, F 0.826, D 0.154, M 0.838, Q 0.38, C 0.214, Y 1.23, V 0.473, R 0.331, S 0.214, A 0.534, P 0.187, H 0.898, G 0.949, I 0.998, W 0.344, T 0.444, N 0.755, E 0.264
chain 5 I2: T 2.56, H 0.943, P 1.66, E 0.694, W 3.66, D 1.78, M 0.834, V 2.6, L 2.58, R 0.251, A 1.19, F 0.604, C 1.31, K 0.571, G 0.418, Q 0.307, N 0.771, S 1.54, Y 0.205
chain 5 S1: L 0.0264, K 0.00805, T 0.0377, A 0.897, C 0.0291, I 0.0565, R 0.0279, H 0.0497, V 0.0822, W 0.0202, D 1.87, M 0.0169, G 0.205, N 0.0146, E 0.252, P 0.0215, Q 0.0368, F 0.0608, Y 0.0177
chain 5 N4: K 0.0265, Y 0.0136, I 0.11, L 0.0142, A 0.402, T 0.394, E 0.0223, C 0.0617, M 0.0197, P 2.41, F 0.0343, H 0.0899, W 1.86, G 0.104, R 0.0317, S 0.0377, V 0.637, D 0.0157, Q 0.0151

Variants of: B2
Experiment: % of reporter cells activated (NFAT-GFP), raw
Settings: with F5; scale: % of reporter cells activated

Ratio to parent: each site, then its substitutions
chain 5 F5: L 0.79, K 0.247, H 0.659, R 0.318, A 0.921, W 1.55, I 0.607, G 0.296, T 1.2, V 1.15, P 4.99, C 1.48, D 0.273, E 0.315, N 0.655, Q 1.76, S 1.09, M 1.51, Y 0.502
chain 5 E6: A 0.318, T 0.36, K 0.337, G 0.281, W 0.318, D 0.371, N 0.296, R 0.453, I 0.21, Q 0.288, Y 0.296, F 0.292, P 0.21, C 0.303, M 0.221, S 0.303, L 0.341, V 0.232, H 0.27
chain 5 I3: A 0.386
chain 5 I2: R 0.273, F 0.577, H 0.378, D 0.652
